Measurements: article PMC3514405

Target: BLV nucleocapsid protein (NC) (Bovine leukemia virus, UniProt P03344)
Experiment: ITC

BLV nucleocapsid protein (NC), sequence (P03344 324-392, tags left off): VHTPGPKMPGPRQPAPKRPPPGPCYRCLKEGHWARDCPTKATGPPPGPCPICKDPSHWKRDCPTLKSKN

CAACUCUCUG (ssRNA) [SLV-VI linker (10 nt)]
Kd: 92 ± 16 nM
